Measured values taken from US20130280736A1 (MOUNT SINAI HOSPITAL, published 2013).

What was measured:
[1] = target: HIF-1αP402R-P564R; test: Western blot of lysates of transfected JEG3 cells, β-actin as loading control
Description: Thus, the antibodies may be useful in predicting the severity of preeclampsia. The monoclonal antibodies were affinity purified, their IgG isotype was determined and their specificity validated (see Table 2 and FIGS. 7 and 8). The antibodies were validated using the following strategy. […] Following transfection with the various HIF-1α constructs, JEG-3 choriocarcinoma and HEK293 cells were cultured with proteosomal inhibitor MG-132 to prevent HIF degradation and Western blot and immunofluorescence analyses were used to establish the specificity and utility of the various clones. Validation experiments were run in parallel using both purified and non-purified clones to rule out potential changes in antibody performance following purification. The Western blot results unequivocally indicate that clones 1H1, 6H4 and 5A5 recognize HIF-P402^OH; clone 6A9 recognizes HIF-P564^OH; clone 7D6 recognizes both HIF-P402^OH and HIF-P64^OH; and clone 7E3 is excellent to detect total HIF-1α. […] Immunofluorescence analysis was conducted in cells and tissue sections.

[2] = target: T1, prolyl-4-hydroxylase 2 (PHD2) (human, UniProt Q9GZT9 2-426, limits assumed); test: preliminary experiments, method not described
T1 construct: Endogenous protein in human placental tissues
T1 sequence (Q9GZT9 2-426 limits assumed): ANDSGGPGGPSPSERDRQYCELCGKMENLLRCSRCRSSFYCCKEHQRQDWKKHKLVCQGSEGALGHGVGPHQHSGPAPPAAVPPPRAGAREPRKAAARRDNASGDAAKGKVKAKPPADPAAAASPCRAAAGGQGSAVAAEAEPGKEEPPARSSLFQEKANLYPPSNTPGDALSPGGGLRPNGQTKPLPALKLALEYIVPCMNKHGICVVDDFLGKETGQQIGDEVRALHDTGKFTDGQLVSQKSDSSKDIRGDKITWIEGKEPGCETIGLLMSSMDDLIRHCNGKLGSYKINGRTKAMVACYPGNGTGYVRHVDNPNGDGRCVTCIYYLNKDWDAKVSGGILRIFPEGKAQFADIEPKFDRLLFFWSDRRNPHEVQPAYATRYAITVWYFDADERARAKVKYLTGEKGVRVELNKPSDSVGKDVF

Sequence of HIF-1αP402R-P564R (chain, as listed by the source P402R P564R P402R P564R limits assumed): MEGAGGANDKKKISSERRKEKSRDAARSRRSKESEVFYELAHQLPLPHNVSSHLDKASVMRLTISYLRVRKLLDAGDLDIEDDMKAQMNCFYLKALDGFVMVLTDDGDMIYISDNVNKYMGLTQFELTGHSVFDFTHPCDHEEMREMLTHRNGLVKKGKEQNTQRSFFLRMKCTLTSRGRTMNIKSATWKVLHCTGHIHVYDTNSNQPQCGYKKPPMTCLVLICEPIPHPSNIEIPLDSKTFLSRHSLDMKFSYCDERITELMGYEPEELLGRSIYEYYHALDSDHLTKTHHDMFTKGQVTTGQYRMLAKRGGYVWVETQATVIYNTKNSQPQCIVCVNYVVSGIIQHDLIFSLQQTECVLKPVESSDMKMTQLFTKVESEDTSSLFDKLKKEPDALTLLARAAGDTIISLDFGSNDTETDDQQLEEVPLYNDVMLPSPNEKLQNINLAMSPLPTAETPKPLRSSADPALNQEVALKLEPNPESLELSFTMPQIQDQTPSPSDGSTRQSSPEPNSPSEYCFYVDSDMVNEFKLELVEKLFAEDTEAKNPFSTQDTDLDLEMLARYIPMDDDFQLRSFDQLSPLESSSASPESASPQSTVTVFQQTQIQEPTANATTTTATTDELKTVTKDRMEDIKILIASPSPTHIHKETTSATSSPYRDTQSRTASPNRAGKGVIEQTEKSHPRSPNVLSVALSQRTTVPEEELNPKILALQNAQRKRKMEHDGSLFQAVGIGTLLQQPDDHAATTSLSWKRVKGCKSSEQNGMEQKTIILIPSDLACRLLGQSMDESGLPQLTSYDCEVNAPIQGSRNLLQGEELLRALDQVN

B1: monoclonal antibody clone 6A9 (antibody, V domains shown)
VH: DVQLVESGGGLVQPGGSRKLSCAASGFTFSSFGMHWVRQAPEKGLEWVAFISSGSHTIFYADTVKGRFTISRDNPKNTLFLQMTSLRSEDTAMYYCTRDYNAYWGQGTLVTVSA
VL: DVLMTQTPLSLPVSLGDQASISCRSSQSIVHSNGNTYLEWYLQKPGQSPKLLIYKVSNRFSGVPDRFSGSGSGTDFTLKISRVEAEDLGVYYCFQGTHVPLTFGAGTKLEL
notes: also called anti-HIF-1αP564^OH
**Q.** Does B1 bind [1]?
**A.** no binding

B2: prolyl-4-hydroxylase 3 (PHD3) (enzyme, human, UniProt Q9H6Z9 1-239, looked up)
chain: MPLGHIMRLDLEKIALEYIVPCLHEVGFCYLDNFLGEVVGDCVLERVKQLHCTGALRDGQLAGPRAGVSKRHLRGDQITWIGGNEEGCEAISFLLSLIDRLVLYCGSRLGKYYVKERSKAMVACYPGNGTGYVRHVDNPNGDGRCITCIYYLNKNWDAKLHGGILRIFPEGKSFIADVEPIFDRLLFFWSDRRNPHEVQPSYATRYAMTVWYFDAEERAEAKKKFRNLTRKTESALTED
notes: Endogenous protein in human placental tissues; the method of the preliminary experiment is not described
**Q.** Does B2 bind [2]?
**A.** binds
